Experimental data reported in PMC8170675, “Allostery through DNA drives phenotype switching”.

Assays:
ComK [1] = biological target: T1, ComK (Bacillus subtilis, UniProt P40396); assay: smFRET; details: amino-C6-dT/dA at dye sites, EMSA: 20 mM Tris pH 7.0, 50 mM L-Arg, 5 mM MgCl2, 150 mM KCl, 10 mM DTT, 0.001% Tween-20, 25 nM DNA, 20 min, smFRET: room temperature, 20 mM DTT
T1 sequence: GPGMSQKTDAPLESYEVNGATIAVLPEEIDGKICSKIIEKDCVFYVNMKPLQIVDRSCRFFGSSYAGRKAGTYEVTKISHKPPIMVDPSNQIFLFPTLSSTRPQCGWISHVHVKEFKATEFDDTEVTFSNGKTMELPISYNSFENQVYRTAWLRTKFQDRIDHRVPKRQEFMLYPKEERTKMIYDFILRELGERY

ComK [2] = biological target: T1, ComK; assay: smFRET; Hill n 2.28 ± 0.16; unit inferred; EMSA: 20 mM Tris pH 7.0, 50 mM L-Arg, 5 mM MgCl2, 150 mM KCl, 10 mM DTT, 0.001% Tween-20, 25 nM DNA, 20 min; smFRET: room temperature, 50 mM L-Arg, 20 mM DTT; details: protein: recombinant; tags: N-terminal His6-HRV3C tag removed; GPG remains at the N-terminus; chain copies: 4; label: AlexaFluor 488 / AlexaFluor 594; blunt
ComK [3] = biological target: T1, ComK; assay: smFRET; Hill n 3.55 ± 0.12; unit not in visible table header, inferred from fit parameters; EMSA: 20 mM Tris pH 7.0, 50 mM L-Arg, 5 mM MgCl2, 150 mM KCl, 10 mM DTT, 0.001% Tween-20, 25 nM DNA, 20 min; smFRET: room temperature, 50 mM L-Arg, 20 mM DTT; details: protein: recombinant; tags: N-terminal His6-HRV3C tag removed; GPG remains at the N-terminus; chain copies: 4; label: AlexaFluor 488 / AlexaFluor 594; blunt
ComK [4] = biological target: T1, ComK; assay: cryo-EM; 50 mM L-Arg; two ComK per box; EMSA: 20 mM Tris pH 7.0, 50 mM L-Arg, 5 mM MgCl2, 150 mM KCl, 10 mM DTT, 0.001% Tween-20, 25 nM DNA, 20 min; smFRET: room temperature, 50 mM L-Arg, 20 mM DTT; details: protein: recombinant; tags: N-terminal His6-HRV3C tag removed; GPG remains at the N-terminus; chain copies: 4; blunt
ComK [5] = biological target: T1, ComK; assay: smFRET; Hill n 2.93 ± 0.28; unit inferred; EMSA: 20 mM Tris pH 7.0, 50 mM L-Arg, 5 mM MgCl2, 150 mM KCl, 10 mM DTT, 0.001% Tween-20, 25 nM DNA, 20 min; smFRET: room temperature, 50 mM L-Arg, 20 mM DTT; details: protein: recombinant; tags: N-terminal His6-HRV3C tag removed; GPG remains at the N-terminus; chain copies: 4; label: AlexaFluor 488 / AlexaFluor 594; blunt ends, internal mismatches in spacer
ΔCys ComK = biological target: T2, ΔCys ComK (Bacillus subtilis, UniProt P40396 1-192, C31A;C39A;C55A;C102A); assay: smFRET; 30 pM DNA, 100 nM protein; EMSA: 20 mM Tris pH 7.0, 50 mM L-Arg, 5 mM MgCl2, 150 mM KCl, 10 mM DTT, 0.001% Tween-20, 25 nM DNA, 20 min; smFRET: room temperature, 50 mM L-Arg, 20 mM DTT; details: protein: recombinant; chain copies: 4; label: AlexaFluor 488 / AlexaFluor 594; blunt
T2 sequence: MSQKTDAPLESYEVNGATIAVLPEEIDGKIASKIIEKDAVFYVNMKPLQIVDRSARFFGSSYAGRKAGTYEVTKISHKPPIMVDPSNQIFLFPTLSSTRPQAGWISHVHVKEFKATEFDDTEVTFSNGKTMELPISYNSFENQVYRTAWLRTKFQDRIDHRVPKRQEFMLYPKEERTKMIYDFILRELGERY

ComK [6] = biological target: T1, ComK; assay: smFRET; Hill n 3.44 ± 0.27; unit inferred; EMSA: 20 mM Tris pH 7.0, 50 mM L-Arg, 5 mM MgCl2, 150 mM KCl, 10 mM DTT, 0.001% Tween-20, 25 nM DNA, 20 min; smFRET: room temperature, 50 mM L-Arg, 20 mM DTT; details: protein: recombinant; tags: N-terminal His6-HRV3C tag removed; GPG remains at the N-terminus; chain copies: 4; label: AlexaFluor 488 / AlexaFluor 594; blunt
ComK [7] = biological target: T1, ComK; assay: smFRET; Hill n 2.97 ± 0.28; unit inferred; EMSA: 20 mM Tris pH 7.0, 50 mM L-Arg, 5 mM MgCl2, 150 mM KCl, 10 mM DTT, 0.001% Tween-20, 25 nM DNA, 20 min; smFRET: room temperature, 50 mM L-Arg, 20 mM DTT; details: protein: recombinant; tags: N-terminal His6-HRV3C tag removed; GPG remains at the N-terminus; chain copies: 4; label: AlexaFluor 488 / AlexaFluor 594; blunt
ComK [8] = biological target: T1, ComK; assay: smFRET; Hill n 3.05 ± 0.08; unit inferred; EMSA: 20 mM Tris pH 7.0, 50 mM L-Arg, 5 mM MgCl2, 150 mM KCl, 10 mM DTT, 0.001% Tween-20, 25 nM DNA, 20 min; smFRET: room temperature, 50 mM L-Arg, 20 mM DTT; details: protein: recombinant; tags: N-terminal His6-HRV3C tag removed; GPG remains at the N-terminus; chain copies: 4; label: AlexaFluor 488 / AlexaFluor 594; blunt
ComK [9] = biological target: T1, ComK; assay: smFRET; Hill n 4.34 ± 0.32; unit inferred; EMSA: 20 mM Tris pH 7.0, 50 mM L-Arg, 5 mM MgCl2, 150 mM KCl, 10 mM DTT, 0.001% Tween-20, 25 nM DNA, 20 min; smFRET: room temperature, 50 mM L-Arg, 20 mM DTT; details: protein: recombinant; tags: N-terminal His6-HRV3C tag removed; GPG remains at the N-terminus; chain copies: 4; label: AlexaFluor 488 / AlexaFluor 594; blunt

Molecule: comG: isolated box 1 labelled
- K half (ComK [1]; Hill n 1.76 ± 0.02, unit inferred): 73 nM

Molecule: comG: isolated box 2 labelled
- K half (ComK [1]; Hill n 1.59 ± 0.09, unit inferred): 48 nM

B1: comK: box 1 labelled (dsDNA)
DNA 1: CTTATGAAAGTAAAATCGGTTTATTACTAGTCATTTAGTACCATTAAATATCATTAAAAGATGATTTTATCTTAAATG
DNA 2: CATTTAAGATAAAATCATCTTTTAATGATATTTAATGGTACTAAATGACTAGTAATAAACCGATTTTACTTTCATAAG
modifications: amino-C6-dT/dA at dye sites
- apparent K (half saturation) (ComK [2]): 21 ± 2 nM

B2: comG: box 1 labelled (dsDNA)
DNA 1: CAGTTGAAAGTCTTTTTTCTTGCCAGAAAGAATTGGTTTTTCAGCATATAACATCTCACAAAATCACGTTTTCCCTGTTTGATTACCTTTTCT
DNA 2: AGAAAAGGTAATCAAACAGGGAAAACGTGATTTTGTGAGATGTTATATGCTGAAAAACCAATTCTTTCTGGCAAGAAAAAAGACTTTCAACTG
modifications: amino-C6-dT/dA at dye sites
- apparent K (half saturation) (ComK [3]): 15 ± 1 nM

B3: comG unlabelled (dsDNA)
DNA 1: CAGTTGAAAGTCTTTTTTCTTGCCAGAAAGAATTGGTTTTTCAGCATATAACATCTCACAAAATCACGTTTTCCCTGTTTGATTACCTTTTCT
DNA 2: AGAAAAGGTAATCAAACAGGGAAAACGTGATTTTGTGAGATGTTATATGCTGAAAAACCAATTCTTTCTGGCAAGAAAAAAGACTTTCAACTG
- binding result (ComK [4]): binds

B4: comG Mismatch: box 1 labelled (dsDNA)
DNA 1: CAGTTGAAAGTCTTTTTTCTTGCCAGAAAGAATTGGTTTTTCAGCAATATACATCTCACAAAATCACGTTTTCCCTGTTTGATTACCTTTTCT
DNA 2: AGAAAAGGTAATCAAACAGGGAAAACGTGATTTTGTGAGATGTTATATGCTGAAAAACCAATTCTTTCTGGCAAGAAAAAAGACTTTCAACTG
modifications: amino-C6-dT/dA at dye sites
- apparent K (half saturation) (ComK [5]): 14 ± 1 nM

B5: comG: box 2 labelled (dsDNA)
DNA 1: CAGTTGAAAGTCTTTTTTCTTGCCAGAAAGAATTGGTTTTTCAGCATATAACATCTCACAAAATCACGTTTTCCCTGTTTGATTACCTTTTCT
DNA 2: AGAAAAGGTAATCAAACAGGGAAAACGTGATTTTGTGAGATGTTATATGCTGAAAAACCAATTCTTTCTGGCAAGAAAAAAGACTTTCAACTG
modifications: amino-C6-dT/dA at dye sites
- binding result (ΔCys ComK): no binding
- apparent K (half saturation) (ComK [6]): 16 ± 1 nM

B6: comG GC-55%: box 1 labelled (dsDNA)
DNA 1: CAGTTGAAAGTCTTTTTTCTTGCCAGAAAGAATTGGTTTTTCAGCAGCTAACAGCTCACAAAATCACGTTTTCCCTGTTTGATTACCTTTTCT
DNA 2: AGAAAAGGTAATCAAACAGGGAAAACGTGATTTTGTGAGCTGTTAGCTGCTGAAAAACCAATTCTTTCTGGCAAGAAAAAAGACTTTCAACTG
modifications: amino-C6-dT/dA at dye sites
- apparent K (half saturation) (ComK [7]): 16 ± 1 nM

B7: comG GC-72%: box 1 labelled (dsDNA)
DNA 1: CAGTTGAAAGTCTTTTTTCTTGCCAGAAAGAATTGGTTTTTCGGCCGCTAACGGCTCACAAAATCACGTTTTCCCTGTTTGATTACCTTTTCT
DNA 2: AGAAAAGGTAATCAAACAGGGAAAACGTGATTTTGTGAGCCGTTAGCGGCCGAAAAACCAATTCTTTCTGGCAAGAAAAAAGACTTTCAACTG
modifications: amino-C6-dT/dA at dye sites
- apparent K (half saturation) (ComK [8]): 17 ± 1 nM

B8: addAB unlabelled (dsDNA)
DNA 1: GATGTGCGGAGATAATCAGCTTTTTATATGTGAAAAGGCCGTTTTTACCAATAGATC
DNA 2: GATCTATTGGTAAAAACGGCCTTTTCACATATAAAAAGCTGATTATCTCCGCACATC
- binding result (ComK [4]): binds

B9: addAB1: box 1 labelled (dsDNA)
DNA 1: GATGTGCGGAGATAATCAGCTTTTTATATGTGAAAAGGCCGTTTTTACCAATAGATC
DNA 2: GATCTATTGGTAAAAACGGCCTTTTCACATATAAAAAGCTGATTATCTCCGCACATC
modifications: amino-C6-dT/dA at dye sites
- apparent K (half saturation) (ComK [9]): 25 ± 6 nM
